Test results published in the nanobody polyreactivity screen of Harvey et al. (2022).

Assay: yeast display, Sf9 membrane polyspecificity reagent, FACS + sequencing; frameworks hold sequencing errors
Summary of the method: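 Synthetic nanobody libraries on Saccharomyces cerevisiae BJ5465 were galactose-induced for 36–48 hours, stained 1 hour at 4 °C with 10% biotinylated, detergent-solubilized Sf9 membrane reagent and enriched on streptavidin microbeads. FACS then separated cells into low and high (top ~1%) gates by anti-HA (expression) and streptavidin (reagent binding) fluorescence. Genes were colony-PCR amplified, MiSeq 2 × 250 sequenced and CDR-length filtered. A clone's polyreactivity label is that of its gate of origin.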

| Sequence | polyreactivity (PSR sort gate) |
| --- | --- |
| QVQLVESGGGLVQAGGSLRLSCAASGRTFRGYVMGWYRQAPGKERELVAAISKSGGSTYYADSVKGRFTISRDIAKNTVYLQMNSLKPEDTAVYYCNALPRTQYDYWGQGTQVTVSS | low polyreactivity |
| QVQLVESGGGLVQAGGSLRLSCAASGRTFRHYAMAWYRQAPGKERELVASIRWNGASTNYADSVKGRFTISRDNAKNTVYLQMNSLKPEDTAVYYCNARYLFYSGYVYWGQGTQVTVSS | high polyreactivity |
| QVQLVESGGGLVQAGGSLRLSCAASGRTFRINAMGCYRQAPGKERELVAAITSGGRTNYADSVKGRFTISRDNAKNTVYLQMNSLKPEDTAVYYCAAERTPSYRAYDYWGQGTQVTVSS | low polyreactivity |
| QVQLVESGGGLVQAGGSLRLSCAASGRTFRIYAMGWYRHAPRKERELVAAIRWSGGTTYYADSVKGRFSISRDNAKNTVYLQMTSLKPEDTAVYYCAADSTNRYDYCGQGTQVTVSS | high polyreactivity |
| QVQLVESGGGLVQAGGSLRLSCAASGRTFRIYAMGWYRQAPGKEREFVAAITWSGGRTYYADSVKGRFTISRDNAKNTVYLQMNSLKPEDTAVYYCAADPTYLRTLRFGSYDYWGQGNQVTVSS | high polyreactivity |
| QVQLVESGGGLVQAGGSLRLSCAASGRTFRIYAMGWYRQAPGKERELVAAINSGGTTNYADSVKGRFTISRDNAKNTVYLQMISLKPEDTAVYYCAVRYWKTLSHFSYDYWGQGTQVTVSS | low polyreactivity |
| QVQLVESGGGLVQAGGSLRLSCAASGRTFRIYAMGWYRQAPGKERELVAAISARGGSTYYADSVKGRFTISRDNAKNTVYLQMNSLKPEDTAVYYCAAEKTRRVDYWGQGTQVTVSS | high polyreactivity |
| QVQLVESGGGLVQAGGSLRLSCAASGRTFRIYAVGWYIQAPGKERELVARITWSGGRTYYADSVKGRFTISRDNAKNTVYLQMNSLKPEDTAVYYCNAGGSWEFDYWGQGTQVTVSS | low polyreactivity |
| QVQLVESGGGLVQAGGSLRLSCAASGRTFRKYAMGWYRQAPGKERELVAAISQRGGTTYYADSVKGRFTISRDNAKNTVYLQINSLKPEDTAVYYCNVAWVGVSLVYGPFEYDYWGQGTQVTVSS | high polyreactivity |
| QVQLVESGGGLVQAGGSLRLSCAASGRTFRKYAMGWYRQAPGKERELVAAISWSGGSTYYANSVKGRFTISRDYAKNTVYLQMNILKPEDTAVYYCAAVPVHTGSLYWGFTTGYDYWGQGTQVTVSS | low polyreactivity |
| QVQLVESGGGLVQAGGSLRLSCAASGRTFRKYAMGWYRQAPGKERELVAAISWSGGSTYYANSVKGRFTISRVNAKNTVYLQMNSLKPEDTAVYYCAAVPVDTGSLYWGFTTGYDYWGQGTQVTVSS | low polyreactivity |
| QVQLVESGGGLVQAGGSLRLSCAASGRTFRKYTMGWYRQAPGKEREFVAAITYSGGSTYYADSVKGRFTISRDNAKNTGYLQMNSLKPEDTAVSYCFTRGGYYLYYSYYYWGQGTQVTVSS | high polyreactivity |
| QVQLVESGGGLVQAGGSLRLSCAASGRTFRLYALGWYRQAPGKERELVAAIRSSGGRTYYADSVKGRFTISRDNAKKTVYLQINSLKPEDTAVYYCATTSGLIGYYWKYNYWGQGTQVTVSS | high polyreactivity |
| QVQLVESGGGLVQAGGSLRLSCAASGRTFRLYAMGWSRPAPGKERELVAAISSGGSTYYADSVKGRFTISRDNAKNTVYLQMNSLKPEDTAVYYCFAWVYQFGYWGQGTQVTVSS | low polyreactivity |
| QVQLVESGGGLVQAGGSLRLSCAASGRTFRLYAMGWYRQAPGKERELVADITTGGGSTYYADSVKGRFTISRDNAKNTVYLQMNSLKPEDTAVYYCAAEQDTVWFLWIVDYWGQGTQVTVSS | low polyreactivity |
| QVQLVESGGGLVQAGGSLRLSCAASGRTFRNNAMGWYRQAPGKERELDAAIKGSGGSTYYADSVKGRFTISRDNAKNTVYLQMNSLKPEDTAVYYCAKAVVPWGPNFRPNHTRGYYWGQGTQATVSS | low polyreactivity |
| QVQLVESGGGLVQAGGSLRLSCAASGRTFRNYAMGWYRQAPGKEREFVAAITGRGGSTYYADSVKGRFTISRDNAKNTVYLQMNSLKPEDTAVYYCAAVSGRTGQRTYYPYYYWGQGTQVTVSS | high polyreactivity |
| QVQLVESGGGLVQAGGSLRLSCAASGRTFRPNAMGWYRQAPGNERELVASITRRGGTTYYADSVKGGFTISRDNAKNTVYLHMNSLKPEDTAVYYCNAPPGYSSTRNGYWGQGTQVTVSS | high polyreactivity |
| QVQLVESGGGLVQAGGSLRLSCAASGRTFRPYAMGWYRQAPGKEMELVAAIDSSGTSTYYADSVKGRFTISRDTAKNTVYLQMNSLKPEDTAVYYCAKAWPDHWYSRYDYWGQGTQLTVSS | low polyreactivity |
| QVQLVESGGGLVQAGGSLRLSCAASGRTFRPYAMGWYRQAPGKERDLVAAIDSSGTSTYYADSVKGRFTISRDNAKKTVYLKMNSLKPEDTAVYYCAKAWPDHWYSRYDYWGQGTQVTVSS | low polyreactivity |
| QVQLVESGGGLVQAGGSLRLSCAASGRTFRPYAMGWYRQAPGKERELVAAISSRGSSTYYADSVKGRFTISRDNAKNTVYLQMNSLKPEDTAFYYCAAEGSVGLYGLIMHYWGQGTQVTVSS | high polyreactivity |
| QVQLVESGGGLVQAGGSLRLSCAASGRTFRPYAMGWYRQAPGKERELVAAISYRGGITNYADSVKGRFTISRDNAKNTVYLQMNSLKPEDTAVYYCNRYAIWVSRFSDLDYWGQGTQVTVSS | low polyreactivity |

| Sequence | polyreactivity (PSR sort gate) |
| --- | --- |
| QVQLVESGGGLVQAGGSLRLSCAASGRTFRQYAMGWYRQAPGKERELVAAIRTNGGRTYYADSVKGRFTISRDNAKNTVYLQMNSLKPEDTAVYYCAVYDVVQGVLFDYWGQGTQVTVSS | high polyreactivity |
| QVQLVESGGGLVQAGGSLRLSCAASGRTFRRNVMGWYRQAPGKERELVAAISTRGGDTYYADSVKGRFTISRDNAKNTVYLQMNSLKPEDTAVYYCAAEYTYGYDYWGQGTQVTVSS | high polyreactivity |
| QVQLVESGGGLVQAGGSLRLSCAASGRTFRRYAMGLYRQAPGKERELVASISTSGGSTYADSVKGRFTISRDNAKNTVYLQMNSLKPEDTAVYYCAVRSPRYVRNGDYWGQGTQVTVSS | high polyreactivity |
| QVQLVESGGGLVQAGGSLRLSCAASGRTFRRYAMGWYRQAPGKEREFVAAIRYSGGITYYADSVKGRFTISRDNAKNTVYLQMNSLKPEDTAVYYCAAYGWGNRWYSRFDYWGQGTQVTVSS | high polyreactivity |
| QVQLVESGGGLVQAGGSLRLSCAASGRTFRRYAMGWYRQAPGKERELVAAISRTGSTNNYADSVKGRFTISRDNAKNTVYLQMNSLIPEDTAVYYCKRQHNLGYGYDYWGQGTQVTVSS | high polyreactivity |
| QVQLVESGGGLVQAGGSLRLSCAASGRTFRRYAMGWYRQAPGKERELVAAITNRGASTYYADSVKGRFTISRDNAKNTVYLQMNSLKPEDTAVYFCNTDPVSGLVWKGTEYDYWGQGTQVTVSS | low polyreactivity |
| QVQLVESGGGLVQAGGSLRLSCAASGRTFRRYAMGWYRQAPGKERELVAAITSGGDTYYADSVKGRFTISRDNAKNTVYLQMNSLKPEDTAVYYCNAASVTRRTGIRAVDFDYWGQGTQVTVSS | high polyreactivity |
| QVQLVESGGGLVQAGGSLRLSCAASGRTFRRYAMGWYRQAPGKERELVASISTSGGSTYADSVKGRFTISRDNAKNTVYLQMNSLKPEDTAVYYCAVRSPRYVRNGDYWGQGTQVTVSS | high polyreactivity |
| QVQLVESGGGLVQAGGSLRLSCAASGRTFRSDNAMGWYRQAPGKERELVAAISQGGGTYYADSVKGRFTISRDNAKNTVYLQMNSLKPEDTAVSYCARDAYYADPSLWYYTYDYWGQCTQVTVSS | low polyreactivity |
| QVQLVESGGGLVQAGGSLRLSCAASGRTFRSYAMGRYRQAPGKVRELVAAISYGGGSTYYADSVKGRFTISRDNAKNTVYLQMNSLKPEDTAVYYCAAAGNKRGGYDYWGQGTQVTVSS | high polyreactivity |
| QVQLVESGGGLVQAGGSLRLSCAASGRTFRTNDMGWYRQAPGKERELVAAISRGGGSTYYADSVKGRFTISRDNAKNTVYLQMNSLKPEDTAVYYCNALRNGIAFGAMDYWGQGTQVTVSS | high polyreactivity |
| QVQLVESGGGLVQAGGSLRLSCAASGRTFRTYAMGWYRQAPGKERELVAAISRTGRTNYADSVKGRFTISRDNAKNTVYLQMNSLKPEDTAVYYCAADRVGWSGYRGDYWGQGTQVTVSS | high polyreactivity |
| QVQLVESGGGLVQAGGSLRLSCAASGRTFRTYTMGWYRQAPGKEREFVAAINKSGGTTNYADSVKGRFTISRDNAKNTVYLQMNSLKPEDTAVYYCAKRGRSTYGYDYWGQGTQVTVSS | high polyreactivity |
| QVQLVESGGGLVQAGGSLRLSCAASGRTFRTYTMGWYRQAPGKERELVAAISRGGSTNYADSVKGRFTISRDNAKNTVYLQMNSLKPEYTAVYYCNAKASFWSPYDDWGQGTQVTVSS | high polyreactivity |
| QVQLVESGGGLVQAGGSLRLSCAASGRTFRTYTMGWYRQAPGKERELVATISWSGGSTNYADSVKGRFTISRDNAKNTVYLQMNSLKPEDTAVYYCNAYVSPRYRGSRYYYWGQGTQVTVSS | high polyreactivity |
| QVQLVESGGGLVQAGGSLRLSCAASGRTFRVYAMGWYRQAPGKERELVAAITGSGDSTYYADSVKGRFTISRDNAKYTVYLQMNSLKPEDTAVYYCNAVYRSTFDYWGQGTQVTVSS | high polyreactivity |
| QVQLVESGGGLVQAGGSLRLSCAASGRTFRVYAMGWYRQAPGKERELVAAITRGGSTYYADSVKGRFTISRDNAKNTVYLQMNSLKPEDTAVYYCAADVLRTQPIGWYSHSPLEYWGQGTQVTVSS | high polyreactivity |
| QVQLVESGGGLVQAGGSLRLSCAASGRTFRWYAMGWYRQAPGKERELVASITWSGGSTYYADSVKGRFTISRDNAKNTVYLQMNSLKPEDTAVYYCNRVLVVSMYEGNYWGQGTQVTVSS | high polyreactivity |
| QVQLVESGGGLVQAGGSLRLSCAASGRTFRYNAMGWYRQAPGKERELVAAITYSGGTTYADSVKGRFTISRDNAKNTVYLQMNSLKPEDTAGYYCAARGYVWNIGRYYWGQGTQVTVSS | high polyreactivity |
| QVQLVESGGGLVQAGGSLRLSCAASGRTFRYNAMGWYRQAPGKERELVAGIRWSGDRTYYADSVKGRFTISRDNAKNTVYLQMNSLKPEDTAVYYCNKVYHPGYGVRATYDYWGQGTQVTVSS | high polyreactivity |
| QVQLVESGGGLVQAGGSLRLSCAASGRTFRYNAMGWYRQAPGKERELVAGITYYGGSTSYADSVKGRFTISRDNAKNTVYLQMNSLKPEDTEVYYCNVVYNYYGRFGSWGQGTQVTVSS | high polyreactivity |
